Results as given in the supplement of paper PMC9170038.

Tested on: MS2 coat protein
Assay: apparent KD of MS2 coat protein; designed switch direction (-1 OFF switch, 1 ON switch): -1; higher = weaker reporter binding
How it was run: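 RNA switches sharing common flanks were transcribed by stalled E. coli RNA polymerase on Illumina chips. A doubling series of SNAP-549-labelled MS2 coat protein, from 0.7 or 1.5 nM to 3 µM, was applied in Tris-HCl pH 7.5 buffer with KCl, MgCl2, BSA, DTT, tRNA and Tween-20. Each step lasted 0.8–1.5 h at the bottom of the series and 10–20 min at the top. Normalised cluster fluorescence was curve-fitted, giving apparent KD as the per-design median over clusters.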

[1] = Eterna round: R95, input ligand: FMN 200 uM
[2] = Eterna round: R95, input ligand: microRNA oligo, concentration not stated
[3] = Eterna round: R95, input ligand: none
[4] = input ligand: microRNA oligo, concentration not stated

Sequence	apparent KD of MS2 coat protein (input ligand: FMN 200 uM)	apparent KD of MS2 coat protein (input ligand: none)	apparent KD of MS2 coat protein [1]	apparent KD of MS2 coat protein [2]	apparent KD of MS2 coat protein [3]	apparent KD of MS2 coat protein [4]
GUUGCUACUGAGGAUAUUAUACUACCCGACUGAUAAGAAGGCAGUACAUGAGGAUCACCCAUGUGGGUAGCCAC [Polaris13] (Eterna round: R97, puzzle: Exclusion 6)	25.5 nM	21.7 nM				
AAUGGUAAAGUCAGGAUAUACGUAAAUCGUUCUAGGUAGAAGGGACAUGAGGAUCACCCAUGUAUGAUAGUAAA [Ex4 #32] (Eterna round: R97, puzzle: Brourd's mod of Exclusion 4)	31.9 nM	35.4 nM				
CUCCUCAUGACGCCUAAACACAUGAGGAUCACCCAUGUACAGGCUUUUUGUCGUCUUAUAAUAAAACCGAGGAUACG [Orlaorusti] (puzzle: Sensor v3, turn-off variant 1)			20.2 nM	116 nM	23.2 nM	
AAUUAACAAGCGAGAUCCUACAUGAGGAUCACCCAUGUGCUCGUCUUAUAAAGUACUAUCACGAAAGUGAUAGUACA [Mat - Sensor v3 - turn-off var 1 - Eli Mod - D64] (puzzle: Sensor v3, turn-off variant 1)			21.8 nM	215 nM	19.5 nM	
AGAGUACAUGUGAGGAUAUCUGGAGUGUCCCACGAAGAGAAGGCACAUGAGGAUCACCCAUGUCGUCCCGGUUU [Eternabot (L1) Solution 28] (Eterna round: R97, puzzle: Brourd's mod of Exclusion 4)	22.5 nM	17.1 nM				
CGGGUGAUAGGAUAUGACCAAGGUGACAUGAGGAUCACCCAUGUGAUCGUCGUAGACCUGUCAGAAGGGUUCCCGA [Bivevebe] (Eterna round: R97, puzzle: Exclusion 5)	78.7 nM	34.9 nM				
ACAUGAGGAUCACCCAUGUACACGUAAUGGCUCAUGUAGAGUGAGGAUAUGUGAGACGAACGAGAACAGAAGGCACAAGACAGG [Deportation 9 - Jieux - Exclusion NG 3] (Eterna round: R96, puzzle: Exclusion NG 3)	29.1 nM	35.9 nM				30.1 nM
AAGAAACAUGAGGAUCACCCAUGUGAGGAUAUGAAAAAGAAAAGAAAAGAAAGAAGGUUCAGAAGGCACAAAGG [salish99-ex1_r3_027] (puzzle: Exclusion 1)			48.6 nM	45.8 nM	28.5 nM	
UAAUGUGCGAGAGGAUAUCGUGUACAAAGUACACGAGAAGGCUUCACAUGAGGAUCACCCAUGUAUCGAGGUGAAACACCUUGA [Omei Exc(NG)1 Bv3] (Eterna round: R96, puzzle: Exclusion NG 1)	448 nM	212 nM				254 nM
CUUGUGUGAGGAUAUGAAUUACCUGGUCAAACAGGCUCCUGUCAGAAGGCACAUGAGGAUCACCCAUGUGGGCA [Dibilela] (Eterna round: R97, puzzle: Exclusion 4)	121 nM	310 nM				
AACGACGGAGGAUAUACACCCUGGGACUCAUUAUCCCUUAGACAUGAGGAUCACCCAUGUAGAAGGCCGAACAC [EX2 B.3] (Eterna round: R97, puzzle: Exclusion 2)	174 nM	29.8 nM				
CUAUGUGCGAGAGGAUAUCGUGUACAAAGUACACGAGAAGGCUUCACAUGAGGAUCACCCAUGUACCGAGGUGAAACACCUUGA [Omei Exc(NG)1 Bv6] (Eterna round: R96, puzzle: Exclusion NG 1)	744 nM	510 nM				261 nM
AAAUACAAGCAAAGAUCUUACAUGAGGAUCACCCAUGUGCUCGUCUUAUAAAGUACUAUCACGAAAGUGAUAGUACA [Sensor 3, v1 - 29] (puzzle: Sensor v3, turn-off variant 1)			19.5 nM	108 nM	19.1 nM	
UUAUUAAAUGUAGGAUAUGCAUAUUAUUAUUAUGCAGAAGGACAUGAGGAUCACCCAUGUAUAUUAUUAUUAUUUAUUAUUUAU [Title] (Eterna round: R96, puzzle: Exclusion NG 1)						35.5 nM
GAUGGAGAGCAGGAUAUCUUGGGUAAGCAUCAUAGAGAAGGGCUCACAUGAGGAUCACCCAUGUGGUCCAAGAA [Usbiridi] (Eterna round: R96, puzzle: Exclusion 6)	57 nM	18.3 nM				15.1 nM
AACCUGAGGCAAAGCUUUAGGUGUACAUGAGGAUCACCCAUGUAGGAUAUGGUAGGCUUUGCUUACCAGAAGGACAUUAUGAUG [Mat - Exclusion NG 3 - Mod of JL - D50] (Eterna round: R96, puzzle: Exclusion NG 3)	68.6 nM	51.7 nM				41.9 nM
GUAGAGUCAGGAUAUACGAGAUCGAUAGAUCGGCGAUCCAAACAUGAGGAUCACCCAUGUAGAAGGGACUCUAC [Mat - Exclusion 2 - Eli Mod - D4] (Eterna round: R97, puzzle: Exclusion 2)	1160 nM	41.6 nM				

Sequence	apparent KD of MS2 coat protein (input ligand: FMN 200 uM)	apparent KD of MS2 coat protein (input ligand: none)	apparent KD of MS2 coat protein [1]	apparent KD of MS2 coat protein [2]	apparent KD of MS2 coat protein [3]	apparent KD of MS2 coat protein [4]
GAUCCUCGGGUUAGGAUAUCGAGGAUGUACGUCAGCGAGAAGGAACAUGAGGAUCACCCAUGUUGCUUAGCAAG [BmEX4 A.18] (Eterna round: R97, puzzle: Brourd's mod of Exclusion 4)	21.1 nM	19.5 nM				
GGUUGACAUGAGGAUCACCCAUGUGAGGAUAUGCGAGAGAAAAAAGUGAGGAAGAAAUGCAGAAGGCGCUGUCG [salish99-ex1_r3_009] (puzzle: Exclusion 1)			127 nM	81.5 nM	433 nM	
UUUGCAAGCUUUUGAUCCCACAUGAGGAUCACCCAUGUUGCUGCCGUGAGGUAGCAUUUAACAAAUGCUCGUCUUAU [JL TOV1 3.53] (Eterna round: R97, puzzle: Sensor, turn-off variant 1)	555 nM	762 nM				
UUAAAUCAUGUAGGAUAUGCGUGGGAAAACUAUGCAGAAGGACAUGAGGAUCACCCAUGUGCUUCCGUCUGAGAACAGACGGUA [Mat - Exclusion NG 1 - Mod of JL - D15] (Eterna round: R96, puzzle: Exclusion NG 1)	226 nM	87.8 nM				76.1 nM
AAAUGAUGAGGAUAUACAUGAGGAUCACCCAUGUGUAAAAAUAAAUACACAAAAGAAAGUAGAAGGCAUCAAAA [Ex 3 May 12] (Eterna round: R96, puzzle: Exclusion 3)						25.1 nM
GUGGUGACAGGAUAUACAUGAGGAUCACCCAUGUGAGGAGGACGAGACAGGUGAAGGAGUAGAAGGGUCAGAGA [JR_Exclu3_Sub026] (puzzle: Exclusion 3)			134 nM	61.9 nM	95.6 nM	
CAGUACUGAGGAUAUACAUGAGGAUCACCCAUGUGAGAGAUACUAGUGAGGUCGAUUAGUAGAAGGCAGUACUG [Mat X3R4 m3] (Eterna round: R97, puzzle: Exclusion 3)	856 nM	35.7 nM				
AAUUUACAUGAGGAUCACCCAUGUGAGGAUAUAUGCAAACAAUUUUUAUUAAUAAAGCAUAGAAGGCGCGUGAU [JR_Exc1_Sub043] (Eterna round: R97, puzzle: Exclusion 1)	90.5 nM	65.7 nM				
AAACCUUGUGUCAGGAUAUGCAGAGGGAACGCCAGGCAGAAGGGACAUGAGGAUCACCCAUGUACAUUUUAAAC [BmEX4 B.19] (Eterna round: R97, puzzle: Brourd's mod of Exclusion 4)	487 nM	39.2 nM				
UUAAUUUAAGGGAUAGAUCAUUACAUGAGGAUCACCCAUGUUGAGGAUAUCAGCUCGAUUAGAGCUGAGAAGGCAACAAUAGGG [ExNG3/14-A1] (Eterna round: R96, puzzle: Exclusion NG 3)	46 nM	63.8 nM				47.1 nM
GUUGCUACUGAGGAUAUUAUUUUACUCGACUGAUAAGAAGGCAGUACAUGAGGAUCACCCAUGUGGGUAGCCAG [Polaris16] (Eterna round: R97, puzzle: Exclusion 6)	64.7 nM	19.3 nM				
UGGGUUCUCCAUAGAAGUAACAUGAGGAUCACCCAUGUAGGGCAAGUUUUUUGCUCGUCAUAGGUUGAGGGAUUGGA [JR_SV3TOV1_Sub017] (puzzle: Sensor v3, turn-off variant 1)			968 nM	441 nM	634 nM	
GGCAUCGGAGGAUAUACUUAUGGUGAUACCAGAAGCUUUCUACUUGAGGAUCACCCAAGUAGAAGGCCGAUGCC [jl-ex2.4.86 ViennaUCT mod] (Eterna round: R97, puzzle: Exclusion 2)	17.5 nM	26.2 nM				
UGAUCUAGCGGAGGAUAUACAUGAGGAUCACCCAUGUAAAUCGCUGAACCGUAGUUCAGCAUCAUGUAGAAGGCCGCUAGAUCU [MOD2 ENG2 3.62 by JL] (Eterna round: R96, puzzle: Exclusion NG 2)	473 nM	70.4 nM				55.6 nM
CCGGUUCAUUAGGAUAUGCAGGUGAACGGUGCCGUAGAAGGAAUGACAUGAGGAUCACCCAUGUAGAGGAAGUG [Eternabot (L2) Solution 82] (Eterna round: R97, puzzle: Exclusion 6)	36.8 nM	55.1 nM				
CGUGCGUAUGUGAGGAUAUGCUGGUCCUUGGAUCGGCAGAAGGUACAUGAGGAUCACCCAUGUGGUGUCGUUCU [salish99_Bmod_ex4_106] (puzzle: Brourd's mod of Exclusion 4)				171 nM		
